Measured values from the supplement of paper PMC10126150.
± gives the standard deviation of the averaged measurements.

Tested on: ATP
Assay: switch fluorescence ratio, 500 uM ATP over buffer (Cy3 cluster intensity, sum of 5 cycles each) (fold (ratio)); higher = stronger signal-on switching upon ATP binding; sequences stand for … in TCGTCGGCAGCGTCAGATGTGTATAAGAGACAGTTTTTTTTTTTTTTTTTTTTTTTTT…TC
Settings: aptamer strand: ATP DNA aptamer (quencher-CACCTGGGGGAGTATTGCGGAGGAAGG + anchor), 100 nM annealed; ATP concentration: 500 uM
Method in brief: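 Values give the fluorescence ratio for each switch-domain sequence, averaged from per-cluster ratios of summed target-cycle to summed buffer-cycle Cy3 intensity. The Cy3-labelled switching-strand clusters sat on a modified Illumina MiSeq flow-cell, were annealed to 100 nM quencher-labelled ATP aptamer, and were imaged in selection buffer, then after 15 min with 500 uM ATP at 22 °C. Five cycles ran with NaOH stripping and re-annealing between them, and clusters outside 100-1000 RFU were excluded.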
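Further: ATP exposure 15 min at 22 °C before imaging.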

| Sequence | switch fluorescence ratio |
| --- | --- |
| ACGGTGGAGT | 1.02 ± 0.054 |
| ACGGTGGCGT | 1.02 ± 0.016 |
| ACGGTGGTCA | 1.023 ± 0.0092 |
| ACGGTGGTGG | 1.12 ± 0.12 |
| ACGGTGTAGG | 1.11 ± 0.12 |
| ACGGTGTCAC | 0.9774 ± 0.0012 |
| ACGGTGTTAC | 1.11 ± 0.027 |
| ACGGTTAGTG | 1.01 ± 0.018 |
| ACGTAATAGC | 2.07 ± 0.13 |
| ACGTACGGGT | 1.46 ± 0.12 |
| ACGTAGTCAT | 1.04 ± 0.03 |
| ACGTATCTCT | 1.17 ± 0.11 |
| ACGTATGGGC | 1.082 ± 0.0027 |
| ACGTATTTGT | 1.11 ± 0.013 |
| ACGTCAAAGG | 1.37 ± 0.51 |
| ACGTCCATTT | 1.06 ± 0.011 |
| ACGTCCTGCT | 1.07 ± 0.011 |
| ACGTCTACGC | 1.101 ± 0.0031 |
| ACGTCTAGTG | 0.965 ± 0.023 |
| ACGTCTTTGT | 1 ± 0.088 |
| ACGTGATTCA | 1.03 ± 0.074 |
| ACGTGCACGA | 1.01 ± 0.015 |
| ACGTGCAGTG | 0.9525 ± 0.0085 |
| ACGTGCGCAG | 1.07 ± 0.018 |
| ACGTGCTCGG | 1.007 ± 0.01 |

| Sequence | switch fluorescence ratio |
| --- | --- |
| ACGTGGCACA | 1.053 ± 0.0084 |
| ACGTGTGCGG | 0.959 ± 0.031 |
| ACGTGTGTGG | 0.989 ± 0.017 |
| ACGTTAATGA | 1.121 ± 0.002 |
| ACGTTCAGGG | 1.05 ± 0.059 |
| ACGTTGAGGG | 1.06 ± 0.049 |
| ACGTTGGACA | 1.12 ± 0.05 |
| ACGTTGGCGG | 1 ± 0.013 |
| ACGTTGTGGA | 1.027 ± 0.0075 |
| ACGTTTGGTG | 0.962 ± 0.03 |
| ACGTTTTTGT | 1.027 ± 0.0097 |
| ACGTTTTTTG | 0.99 ± 0.015 |
| ACTAAAAAGA | 1.07 ± 0.056 |
| ACTAAAGAGC | 1.12 ± 0.2 |
| ACTAAATCCT | 1.19 ± 0.02 |
| ACTAACTTTC | 1.1 ± 0.097 |
| ACTAAGAGTT | 1.03 ± 0.056 |
| ACTAATACGA | 2.41 ± 1.8 |
| ACTAATCGAA | 1.05 ± 0.013 |
| ACTAATGCTT | 1.01 ± 0.034 |
| ACTAATGTAT | 1 ± 0.014 |
| ACTAATTATT | 1.03 ± 0.021 |
| ACTACAGGCT | 1.026 ± 0.0035 |
| ACTACGATGG | 1.05 ± 0.018 |
| ACTACGCTTG | 1.29 ± 0.022 |

| Sequence | switch fluorescence ratio |
| --- | --- |
| ACTAGAAATG | 0.984 ± 0.017 |
| ACTAGAGCCA | 0.982 ± 0.011 |
| ACTAGGCAAT | 1.96 ± 0.27 |
| ACTAGGGGGA | 0.986 ± 0.023 |
| ACTAGGTATG | 1.01 ± 0.032 |
| ACTAGTAGGG | 1 ± 0.0095 |
| ACTAGTCGGA | 1.03 ± 0.028 |
| ACTATAATCA | 1.04 ± 0.026 |
| ACTATAGTAT | 1 ± 0.057 |
| ACTATGAACC | 1.051 ± 0.0016 |
| ACTATGATAT | 1.018 ± 0.0073 |
| ACTATGGAGC | 1.07 ± 0.077 |
| ACTATGGGGA | 1.01 ± 0.0026 |
| ACTATGTGTG | 0.99 ± 0.031 |
| ACTATTCGCT | 1.02 ± 0.01 |
| ACTATTCGGC | 0.982 ± 0.02 |
| ACTATTGGGG | 0.989 ± 0.011 |
| ACTCAATTAG | 1.025 ± 0.01 |
| ACTCAATTAT | 1.02 ± 0.042 |
| ACTCAGTTCT | 1.03 ± 0.016 |
| ACTCATGGCA | 1.09 ± 0.046 |
| ACTCATTTC | 1.03 ± 0.047 |
| ACTCATTTTA | 1.02 ± 0.024 |
| ACTCGAAAAA | 1.04 ± 0.026 |
| ACTCGATTTT | 1.02 ± 0.033 |

| Sequence | switch fluorescence ratio |
| --- | --- |
| ACTCGGCCC | 1.23 ± 0.015 |
| ACTCGGCGGT | 2.14 ± 1.7 |
| ACTCGGCTTG | 1.03 ± 0.023 |
| ACTCGGGTGG | 1.019 ± 0.0096 |
| ACTCTATACA | 1.11 ± 0.088 |
| ACTGAAGGGG | 1.02 ± 0.059 |
| ACTGAATTGG | 1.001 ± 0.0029 |
| ACTGAGGAT | 0.9994 ± 0.003 |
| ACTGAGGGGA | 1 ± 0.08 |
| ACTGAGTTGG | 0.986 ± 0.013 |
| ACTGATTTTA | 1.01 ± 0.056 |
| ACTGCAGAGG | 1.08 ± 0.034 |
| ACTGCGGGTC | 1.031 ± 0.0063 |
| ACTGCTAATT | 1.08 ± 0.039 |
| ACTGCTAGGG | 1.02 ± 0.013 |
| ACTGGAGGGT | 1.02 ± 0.044 |
| ACTGGCATTG | 1.02 ± 0.044 |
| ACTGGCCCCG | 1.34 ± 0.41 |
| ACTGGCTCCT | 1.02 ± 0.056 |
| ACTGGGAAG | 1.05 ± 0.064 |
| ACTGGGCCGT | 1.01 ± 0.046 |
| ACTGGGGCCA | 0.972 ± 0.047 |
| ACTGGGGCCG | 1.01 ± 0.056 |
| ACTGGGGGTA | 1.01 ± 0.025 |
| ACTGGGTATT | 0.963 ± 0.061 |

| Sequence | switch fluorescence ratio |
| --- | --- |
| ACTGGTAACG | 1.02 ± 0.024 |
| ACTGGTATA | 0.994 ± 0.032 |
| ACTGTAAATT | 1.086 ± 0.0031 |
| ACTGTAGGGC | 1.04 ± 0.04 |
| ACTGTGCGCC | 1.01 ± 0.029 |
| ACTGTGGGGT | 0.996 ± 0.022 |
| ACTGTTATGA | 1.08 ± 0.058 |
| ACTGTTATGG | 1.066 ± 0.0077 |
| ACTGTTGGGG | 0.999 ± 0.02 |
| ACTTAATAAC | 1.03 ± 0.013 |
| ACTTAATTTG | 1 ± 0.044 |
| ACTTACAGCT | 1.19 ± 0.017 |
| ACTTAGCAA | 1.92 ± 0.092 |
| ACTTAGTTAA | 1.02 ± 0.015 |
| ACTTATCATT | 1.04 ± 0.013 |
| ACTTATCCTT | 1.0512 ± 0.00011 |
| ACTTATGCAT | 1.055 ± 0.0046 |
| ACTTCACTCG | 1.42 ± 0.098 |
| ACTTCCGTTC | 1.35 ± 0.017 |
| ACTTCGGGTA | 1.003 ± 0.0017 |
| ACTTCGTATG | 1.03 ± 0.011 |
| ACTTGCACGT | 1.175 ± 0.0094 |
| ACTTGCTTAC | 2 ± 0.022 |
| ACTTGGAGCG | 1.018 ± 0.0092 |
| ACTTGTAATG | 0.989 ± 0.049 |

| Sequence | switch fluorescence ratio |
| --- | --- |
| ACTTGTGGGG | 0.973 ± 0.037 |
| ACTTGTTGCG | 0.989 ± 0.056 |
| ACTTTAGGGA | 0.974 ± 0.019 |
| ACTTTCTGAC | 1.22 ± 0.24 |
| ACTTTGCATT | 1.19 ± 0.038 |
| ACTTTGGCC | 1.0113 ± 0.00058 |
| ACTTTGGGGA | 1.033 ± 0.0065 |
| ACTTTGGTAT | 0.982 ± 0.029 |
| ACTTTTACA | 1.155 ± 0.0053 |
| ACTTTTTGTG | 1 ± 0.013 |
| AGAAAAAATG | 0.974 ± 0.05 |
| AGAAAAACGG | 1.12 ± 0.25 |
| AGAAAAATGG | 0.998 ± 0.02 |
| AGAAAAGGGT | 0.997 ± 0.03 |
| AGAAAAGGTT | 0.98 ± 0.021 |
| AGAAACAAGG | 0.979 ± 0.027 |
| AGAAACGTAT | 1.13 ± 0.013 |
| AGAAAGACTT | 1.04 ± 0.047 |
| AGAAAGAGGA | 0.987 ± 0.023 |
| AGAAAGGGCC | 0.966 ± 0.055 |
| AGAAAGGTCT | 1.026 ± 0.0085 |
| AGAAATATAT | 1.23 ± 0.35 |
| AGAAATGATA | 1.001 ± 0.0019 |
| AGAAATTAGT | 1.03 ± 0.015 |
| AGAAATTCGA | 1.03 ± 0.012 |

| Sequence | switch fluorescence ratio |
| --- | --- |
| AGAACACAGT | 1.006 ± 0.0014 |
| AGAACATTGG | 0.985 ± 0.013 |
| AGAACCTTCG | 3.17 ± 0.38 |
| AGAACGGTGG | 0.9693 ± 0.0096 |
| AGAACTGTAA | 1.08 ± 0.034 |
| AGAACTTTTT | 0.98 ± 0.011 |
| AGAAGATGCT | 0.9797 ± 0.0088 |
| AGAAGATGTG | 0.973 ± 0.059 |
| AGAAGATTGG | 0.9723 ± 0.0053 |
| AGAAGCCCCC | 1.02 ± 0.048 |
| AGAAGGATGG | 0.983 ± 0.026 |
| AGAAGGATTA | 1 ± 0.017 |
| AGAAGGGCCC | 0.9967 ± 0.0016 |
| AGAAGGGGCG | 1.02 ± 0.06 |
| AGAAGGGGTT | 1.04 ± 0.053 |
| AGAAGGTCGG | 1.01 ± 0.036 |
| AGAAGTGCGG | 0.984 ± 0.032 |
| AGAATAAGTT | 1.013 ± 0.0018 |
| AGAATATTAG | 0.987 ± 0.037 |
| AGAATATTGG | 0.982 ± 0.046 |
| AGAATCAGGC | 1.04 ± 0.17 |
| AGAATCCAGC | 0.982 ± 0.021 |
| AGAATCCGGG | 0.97 ± 0.041 |
| AGAATCGGCA | 0.997 ± 0.031 |
| AGAATGCACG | 0.957 ± 0.035 |

| Sequence | switch fluorescence ratio |
| --- | --- |
| AGAATGGCTT | 1 ± 0.041 |
| AGAATGGTCG | 1.03 ± 0.03 |
| AGAATGTGC | 0.9956 ± 0.0047 |
| AGAATTATCT | 1 ± 0.024 |
| AGAATTTGCG | 0.974 ± 0.018 |
| AGACAAAGA | 0.967 ± 0.022 |
| AGACAAAGCG | 1.03 ± 0.035 |
| AGACAATATT | 0.979 ± 0.032 |
| AGACAATTCA | 1.02 ± 0.019 |
| AGACACATCC | 1.11 ± 0.022 |
| AGACAGAGGG | 0.988 ± 0.012 |
| AGACAGCAGC | 1.05 ± 0.011 |
| AGACCGGGGA | 0.989 ± 0.033 |
| AGACCGTTCG | 1.02 ± 0.0066 |
| AGACCTAGAC | 1.05 ± 0.025 |
| AGACCTTTTA | 1 ± 0.063 |
| AGACGAGACT | 1.08 ± 0.03 |
| AGACGAGGTA | 1.03 ± 0.05 |
| AGACGAGTCT | 0.974 ± 0.03 |
| AGACGGTAGC | 1.01 ± 0.026 |
| AGACGTTATT | 1.15 ± 0.1 |
| AGACTCCACC | 1.398 ± 0.0081 |
| AGACTGGGGG | 0.997 ± 0.033 |
| AGACTTTAAA | 1.01 ± 0.019 |
| AGAGACTATT | 1.01 ± 0.0095 |
